The source of these data is patent US20240317858A1 (Adimab, published 2024).

Where a chain is given by its changes, count along the chain named.

Test [1] addresses T1, Human CD3εδ Fc heterodimer (Hu CD3ε Fc + CD3δ Fc-HIS) (human, UniProt P07766 22-126; P04234 22-100).
T1 construct: range 22-126;range 22-100; Made in HEK 293 cells with a heterologous signal peptide; also called Hu CD3εδ-Fc; CD3εδ Fc-HIS heterodimer; not shown: Fc; Fc followed by HIS tag
Description: BLI (Octet), Fab monovalent, pH 6.0. How it is done: (§1) ForteBio KD measurements (Biolayer interferometry; BLI). ForteBio affinity measurements were performed generally as previously described (Estep, P., et al., High throughput solution-based measurement of antibody-antigen affinity and epitope binning. MAbs, 2013. 5(2): p. 270-8.). Briefly, ForteBio affinity measurements were performed by loading IgGs or CD3εδ Fe-HIS heterodimer onto AHC sensors. Sensors were equilibrated off-line in assay buffer for 30 min and then monitored on-line for 60 seconds for baseline establishment. Sensors with loaded IgGs were exposed to 100 nM antigen (e.g., CD3) for 3 min, afterwards they were transferred to assay buffer for 10 min for off-rate measurement. Sensors loaded with CD3εδ Fe-HIS heterodimer were exposed to 100 nM anti-CD3 Fab for 3 min, afterwards they were transferred to assay buffer for 3 min or 10 min for off-rate measurement. Kinetics were analyzed using the 1:1 binding model. For measuring binding at different pHs, measurements were performed at pre-determined pHs (e.g., pH 7.4 and pH 6.0).
(§2) Anti-CD3 antibodies A001-A005, V002, V004, V007, V009, V010, V013, and V014-V019 were produced as IgG1s in CHO cells, and Fab fragments were generated from IgG1 antibodies by papain digestion and purification as described in Example 2. Human, cynomolgus, rhesus, and mouse CD3εδ Fc heterodimers were produced, and monovalent binding affinity and avidity at pH 7.4 and pH 6.0 were measured using the Octet® HTX instrument (ForteBio) as described in Example 2.

Test [2] addresses T2, Cynomolgus CD3εδ Fc heterodimer (Cy CD3ε Fc + CD3δ Fc-HIS) (cynomolgus, UniProt Q95LI5 22-117; Q95LI8 22-100).
T2 construct: range 22-117;range 22-100; Made in HEK 293 cells with a heterologous signal peptide; also called Cy CD3εδ-Fc; cyno CD3εδ Fc; not shown: Fc; Fc followed by HIS tag
Description: BLI (Octet), Fab monovalent, pH 6.0. How it is done:
as §1, §2
A general note: BLI is a label-free optical method that tracks binding on a fibre tip over time.

For test [3], the target named is T1, Human CD3εδ Fc heterodimer (Hu CD3ε Fc …). The test is described as follows: BLI (Octet), Fab monovalent, pH 7.4. How it is done: as §1, §2
The target in test [4] is T2, Cynomolgus CD3εδ Fc heterodimer (Cy …). Description: BLI (Octet), Fab monovalent, pH 7.4. How it is done: as §1, §2
Test [5] deals with T3, Rhesus CD3εδ Fc heterodimer (rhesus).
T3 construct: extracellular domain; also called Rh CD3εδ-Fc
The test is described as follows: BLI (Octet), Fab monovalent, pH 7.4. How it is done:
as §1, §2

In test [6] the target is T1, Human CD3εδ Fc heterodimer (Hu CD3ε Fc …). Description: SPR (Biacore), Fab over immobilized CD3εδ Fc, pH 6.0. How it is done:
(§3) Anti-CD3 antibodies A001-A005, V002, V004, V007, V009, V010, V013, and V014-V019 were produced in CHO cells, and Fab fragments were generated from IgG1 antibodies by papain digestion and purification as described in Example 2. Monovalent binding affinity at pH 7.4 and pH 6.0 was measured via surface plasmon resonance (SPR). Briefly, human or cynomolgus CD3εδ Fe heterodimer produced as described in Example 2 was immobilized to a CM5 sensor chip in a Biacore® X100 (Cytiva, previously GE Healthcare Life Sciences) to a response level of ˜500 RUs. Fabs were then injected at 3-fold increasing concentrations, ranging from 0.74-180 nM. The sensor chip was doubly regenerated between cycles using 0.35 M EDTA and 0.1 M NaOH. The resulting data were double reference subtracted and fit to a 1:1 binding model using Biacore® Evaluation Software.
In general terms: Surface plasmon resonance follows binding to a sensor surface in real time, without labels.

The target of test [7] is T2, Cynomolgus CD3εδ Fc heterodimer (Cy …). The description is as above. How it is done: as §3
Test [8] addresses T1, Human CD3εδ Fc heterodimer (Hu CD3ε Fc …). The test is described as follows: SPR (Biacore), Fab over immobilized CD3εδ Fc, pH 7.4. How it is done:
as §3

Test [9] deals with T2, Cynomolgus CD3εδ Fc heterodimer (Cy …). The description is as above. The protocol: as §3
The target of test [10] is T1, Human CD3εδ Fc heterodimer (Hu CD3ε Fc …). The test is described as follows: BLI (Octet), CD3εδ Fc on AHC sensor, 100 nM Fab. How it is done:
(§4) Affinity of the anti-CD3 antibodies for CD3 was determined by measuring their kinetic constants (kₒₙ, koff, KD) on ForteBio Octet®. ForteBio affinity measurements were performed generally as previously described (Estep et al., MAbs. 2013 5(2):270-8). […] Sensors were equilibrated off-line in assay buffer for 30 minutes and then monitored on-line for 60 seconds for baseline establishment. For monovalent binding measurement, sensors with loaded CD3εδ Fc were exposed to 100 nM anti-CD3 Fab, as further described in Example 2 below] for 3 minutes, afterwards they were transferred to assay buffer for 3 minutes for off-rate measurement. Kinetics data were fit using a 1:1 binding model in the data analysis software provided by ForteBio.

Test [11] has as its target T2, Cynomolgus CD3εδ Fc heterodimer (Cy …). The test is described as follows: BLI (Octet), CD3εδ Fc on AHC sensor, 100 nM Fab. The protocol: as §4

T1 sequence (P07766 22-126, stated change not applied, form in doubt, chain 1 of 2): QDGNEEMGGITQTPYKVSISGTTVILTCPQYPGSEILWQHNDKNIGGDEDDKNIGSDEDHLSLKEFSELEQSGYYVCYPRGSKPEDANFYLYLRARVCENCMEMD
T1 sequence (P04234 22-100, stated change not applied, form in doubt, chain 2 of 2): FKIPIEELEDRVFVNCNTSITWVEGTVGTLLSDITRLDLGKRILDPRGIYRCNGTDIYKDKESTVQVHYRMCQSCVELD
T2 sequence (Q95LI5 22-117, stated change not applied, form in doubt, chain 1 of 2): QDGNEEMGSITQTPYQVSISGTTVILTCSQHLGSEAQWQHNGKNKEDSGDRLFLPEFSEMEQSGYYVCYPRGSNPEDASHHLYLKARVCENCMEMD
T2 sequence (Q95LI8 22-100, stated change not applied, form in doubt, chain 2 of 2): as the sequence (P04234 22-100, stated change not applied, form in doubt, chain 2 of 2) above, with I5V, N15K, I20V, S32T, D33N, I34N, T64A, S74N counted along it

B1: Antibody No. A005 (ADI-26921) Fab (Fab, V domains shown)
VH: QVQLVQSGAEVKKPGASVKVSCKASGFNIKDYYMHWVRQAPGQRLEWMGWIDLEEGNTIYDAKFQGRVTITRDTSASTAYMELSSLRSEDTAVYYCARDAYGRYFYDVWGQGTLVTVSS
VL: DIVMTQSPDSLAVSLGERATINCKSSQSLLNARTGKNYLAWYQQKPGQPPKLLIYWASTRESGVPDRFSGSGSGTDFTLTISSLQAEDVAVYYCKQSYSLRTFGGGTKVEIK
notes: Fab by papain digestion of the IgG1
For B1, the Kd in [1] was 35 nM; in test [2], 45 nM; in [3], 78 nM; in test [4] it was 39 nM; in [5] it was 36 nM; in test [6] it was 20 nM. Moreover, the values for the Kd in test [7], in [8] and in [9] were 24 nM, 24 nM and 33 nM, respectively.

B2: Antibody No. V015 (ADI-76358) Fab (Fab, V domains shown)
VH: B1 VH with E55N, G56A, N57D, A100Q
VL: B1 VL with L100R
notes: as for B1
As for B2, the Kd worked out at 34 nM in test [1]; 29 nM in test [2]; 56 nM in test [3]; 58 nM in [4]; 53 nM in test [5]; 14 nM in test [6]. Further, the Kd worked out at 11 nM in test [7], 18 nM in test [8] and 19 nM in test [9].

B3: Antibody No. V008 (ADI-70325) Fab (Fab, V domains shown)
VH: B1 VH with M48I, E55N, G56A, N57E, I59V, G66D
VL: B1 VL with T5S, E61S, K95V, S99F, L100R
notes: as for B1
With B3, the equilibrium dissociation constant (Kd) was found to be 0.95 nM in test [10] and 0.91 nM in test [11].

B4: Antibody No. V012 (ADI-70329) Fab (Fab, V domains shown)
VH: B1 VH with I29D, M48I, E55N, G56A, N57E, I59V, G66D
VL: B1 VL with T5S, E61S, K95V, S99F, L100R
notes: as for B1
In the case of B4, the Kd in [10] was 1.65 nM; in [11], 1.64 nM.

B5: Antibody No. V003 (ADI-67446) Fab (Fab, V domains shown)
VH: B1 VH with N28D, D52E, E55N, G56A, N57D
VL: B1 VL with L100R
notes: as for B1
For the molecule B5, the values for the dissociation constant Kd in test [10] and in test [11] were 4.57 nM and 4.18 nM, respectively.

B6: Antibody No. V014 (ADI-76357) Fab (Fab, V domains shown)
VH: B1 VH with N28D, E55N, G56A, A100Q
VL: B1 VL with L100R
notes: as for B1
Turning to B6, the Kd in test [1] was determined as 24 nM; in [2], 21 nM; in [3], 44 nM; in test [4], 39 nM; in test [5] it was 39 nM; in test [6] it was 12 nM. Further, the Kd worked out at 12 nM in test [7], 11 nM in test [8] and 11 nM in [9].

B7: Antibody No. V005 (ADI-67448) Fab (Fab, V domains shown)
VH: B1 VH with K30D, E55N, G56D
VL: B1 VL with L100R
notes: Fab by papain digestion of the IgG1; VH as printed is identical to that of V004
Regarding B7, the figures for the Kd in test [10] and in [11] were 6.98 nM and 6.06 nM, respectively.

B8: Antibody No. V018 (ADI-76361) Fab (Fab, V domains shown)
VH: B1 VH with N28D
VL: B1 VL
notes: as for B1
Take B8: the Kd amounted to 33 nM in [1]; 17 nM in test [2]; 37 nM in test [3]; 28 nM in test [4]; 29 nM in [5]; 31 nM in [6]. Besides, the dissociation constant Kd was 29 nM in test [7], 42 nM in test [8] and 36 nM in test [9].

B9: Antibody No. V006 (ADI-67449) Fab (Fab, V domains shown)
VH: B1 VH with I29D, E55N, G56A, N57E, G66D
VL: B1 VL with L100R
notes: as for B1
Take B9: the Kd in test [10] came out at 7.97 nM; in test [11] it was 8.15 nM.

B10: Antibody No. V016 (ADI-76359) Fab (Fab, V domains shown)
VH: B1 VH with N28D, E55N, G56A, A97G
VL: B1 VL
notes: as for B1
Consider B10, for which the Kd in test [1] came to 37 nM; in test [2], 49 nM; in [3] it was 77 nM; in test [4], 75 nM; in test [5], 87 nM; in [6], 22 nM. Moreover, the figures for the Kd in [7], in [8] and in [9] were 23 nM, 14 nM and 16 nM, respectively.

The Kd is the constant that tells how readily two partners part at equilibrium.
